Publication PMC5534098, “Modulation of chromatin structure by the FACT histone chaperone complex regulates HIV-1 integration” (Retrovirology, 2017)

Target: T1, FACT (FAcilitates Chromatin Transcription) complex, recombinant purified (human | , UniProt Q9Y5B9 1-1047; Q08945 1-709)
T1 construct: also called FACT complex; source: recombinant, purified as reported before [17, 18]
Experiment: pull-down
Conditions: both partners purified

T1 sequence (Q9Y5B9 whole entry, chain 1 of 2): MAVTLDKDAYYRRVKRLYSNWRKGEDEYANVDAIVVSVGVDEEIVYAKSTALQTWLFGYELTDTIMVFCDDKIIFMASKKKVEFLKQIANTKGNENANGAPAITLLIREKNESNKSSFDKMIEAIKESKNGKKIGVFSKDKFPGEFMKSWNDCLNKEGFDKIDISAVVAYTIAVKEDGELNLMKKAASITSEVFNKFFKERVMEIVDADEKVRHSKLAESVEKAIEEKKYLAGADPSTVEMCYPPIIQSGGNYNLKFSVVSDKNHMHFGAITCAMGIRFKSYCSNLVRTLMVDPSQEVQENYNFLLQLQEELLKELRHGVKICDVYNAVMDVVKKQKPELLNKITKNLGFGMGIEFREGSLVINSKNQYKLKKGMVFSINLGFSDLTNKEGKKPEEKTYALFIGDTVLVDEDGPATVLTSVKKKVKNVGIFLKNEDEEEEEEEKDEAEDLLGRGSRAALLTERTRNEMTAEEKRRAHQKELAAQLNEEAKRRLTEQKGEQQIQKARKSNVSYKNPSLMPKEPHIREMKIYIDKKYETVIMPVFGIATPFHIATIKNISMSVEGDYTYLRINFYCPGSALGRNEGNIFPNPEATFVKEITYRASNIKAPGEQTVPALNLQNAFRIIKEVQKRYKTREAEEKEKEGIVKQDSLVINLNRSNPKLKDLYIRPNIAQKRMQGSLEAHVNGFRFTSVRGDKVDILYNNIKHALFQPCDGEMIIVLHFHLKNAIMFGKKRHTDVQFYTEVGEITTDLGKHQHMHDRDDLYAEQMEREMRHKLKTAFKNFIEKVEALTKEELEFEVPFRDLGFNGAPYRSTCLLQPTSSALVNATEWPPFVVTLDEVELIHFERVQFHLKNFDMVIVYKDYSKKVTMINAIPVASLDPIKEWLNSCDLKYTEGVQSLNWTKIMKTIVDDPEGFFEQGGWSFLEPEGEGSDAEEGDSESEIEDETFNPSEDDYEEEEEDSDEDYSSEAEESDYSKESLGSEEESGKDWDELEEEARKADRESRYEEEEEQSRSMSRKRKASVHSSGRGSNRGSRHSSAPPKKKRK
T1 sequence (Q08945 whole entry, chain 2 of 2): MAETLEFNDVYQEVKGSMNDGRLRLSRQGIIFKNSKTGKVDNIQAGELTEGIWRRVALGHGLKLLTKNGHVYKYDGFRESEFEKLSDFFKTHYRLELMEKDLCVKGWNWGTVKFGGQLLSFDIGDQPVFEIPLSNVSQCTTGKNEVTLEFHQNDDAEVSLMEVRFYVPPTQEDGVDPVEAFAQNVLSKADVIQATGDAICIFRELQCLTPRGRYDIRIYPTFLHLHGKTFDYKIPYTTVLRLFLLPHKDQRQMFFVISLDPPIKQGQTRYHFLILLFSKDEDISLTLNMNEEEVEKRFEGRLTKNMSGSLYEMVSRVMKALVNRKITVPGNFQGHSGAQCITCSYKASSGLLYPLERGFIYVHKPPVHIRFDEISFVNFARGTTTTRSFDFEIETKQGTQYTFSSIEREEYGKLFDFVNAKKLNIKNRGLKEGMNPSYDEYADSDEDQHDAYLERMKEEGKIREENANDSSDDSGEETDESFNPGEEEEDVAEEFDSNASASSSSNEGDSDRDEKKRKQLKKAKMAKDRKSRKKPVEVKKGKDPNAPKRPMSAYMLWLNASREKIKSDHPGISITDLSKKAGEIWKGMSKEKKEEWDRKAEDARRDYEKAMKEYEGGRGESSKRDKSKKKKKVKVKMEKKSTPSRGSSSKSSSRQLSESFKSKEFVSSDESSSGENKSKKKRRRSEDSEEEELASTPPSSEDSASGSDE

- binding result: binds
B1: LEDGF/p75-GST (natural protein)
chain: not shown
